Measurements taken from the supplement of paper PMC10201428.
± gives the standard deviation of the averaged measurements.

What follows are sequences tested on VchCAST RNA-guided transposition machinery (E. coli BL21(DE3) host, lacZ target) (assay: relative integration efficiency (T-LR orientation) vs wild-type transposon end (log2 (normalized fold change)); transposon end mutated: right end (5 bp flank + 75 bp right end); higher = more efficient transposition).
Procedure, shortened: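 Barcode abundances in input plasmids and in genomic integration junctions were obtained by PCR amplification and Illumina sequencing. These came from E. coli BL21(DE3) co-transformed with a T7-driven effector plasmid and a pUC57 donor carrying 1549 left-end or 1849 right-end transposon variants, then plated with 0.1 mM IPTG at 37°C for 18 h. Relative integration efficiency is the output/input fold change, normalised to reference barcodes and log-transformed.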

Sequence	relative integration efficiency (log2)
ACATTTGTTGATACAACCATAAAATGATAATTACACCCATAAATTGATAATGATGACACCGAATTTAACTATAACGCTCTGATCATAGTCAGACCAACATTGCTACGACCCGTATTCGCACCGACAC	2.06 ± 0.097
ACATTTGTGGATCCAACCATAAAATGATAATTACACCCATAAATGGATAATTATCACACCCAATTTAACTATAACGCTCTGATCATAGTCAGACCAACATTGCTACGACCCGTATTCGCACCGACAC	1.18 ± 0.021
ACATTTGTTTATACAACCATAAAATGATAATTACACCCATAAATTTATTATTATCACACCCAATTTAACTATAACGCTCTGATCATAGTCAGACCAACATTGCTACGACCCGTATTCGCACCGACAC	-0.334 ± 0.058
ACATTTGTTGATACAACCATAAAATGATAATTAATAATTATTTATAATCAGCAACTTAACCACCACCCATAAATTGATAATTATCACACCCATAAATTGATATTGCCTCTGATCATAGTCAGACCAA	-0.482 ± 0.91
ACATTTGTTGATACAACCATAAGTTGATATTTTCAACCATAAAATGATAATTATCACAACCATAAAATGATAATTACTCTGATCATAGTCAGACCAACATTGCTACGACCCGTATTCGCACCGACAC	-0.774 ± 0.049
ACATTTGTTGATACAACCATAAAATGATAATTACACCCATAAATTGATAATTATCAAACACCCATAAATTGATATTGCCTCTGATCATAGTCAGACCAACATTGCTACGACCCGTATTCGCACCGAC	1.9 ± 0.28
ACATTTGTTGATACAACCATAAAATGATAATTAATAATTATTTATAATCAGCAACTTACACCCATAAATTGATAATTATCAACAAACGCCCGGTCGCGGTACTCTGATCATAGTCAGACCAACATTG	-1.91 ± 0.28
ACATTTGTTGATACAACCATCAAATGATAATTCCACCCCTACATTGATAATTATCACACCCAATTTAACTATAACGCTCTGATCATAGTCAGACCAACATTGCTACGACCCGTATTCGCACCGACAC	-0.8 ± 0.15
ACATTTGTTGATACAACCATAAAATGATAATTCACCCATAAATTGATAATTATCACACCCACATTTAACTATAACGCTCTGATCATAGTCAGACCAACATTGCTACGACCCGTATTCGCACCGACAC	1.31 ± 0.058
ACATTTGTTGATACAACCATATATTGATATCTCCACCCATAAATTGATAATTATCACAACCATATATTGATATCTCCTCTGATCATAGTCAGACCAACATTGCTACGACCCGTATTCGCACCGACAC	-0.00761 ± 0.26
ACATTTGTTGATACAACCATAAAATGGTAATTCCACCCCTACATTGATAATTATCACACCCAATTTAACTATAACGCTCTGATCATAGTCAGACCAACATTGCTACGACCCGTATTCGCACCGACAC	-0.604 ± 0.45
ACATTTTGTGATACAACCATAAAATGATAATTACACCCATAAATTGATAATTATCACACCCATAAATTGATATTGCCTCTGATCATAGTCAGACCAACATTGCTACGACCCGTATTCGCACCGACAC	< -10
ACATTTGTTGATACAACCATAAAATGATAATTACACCCATAAATTTCGCCGGCGACACAAACGCCCGGTCGCGGTAAGAGGATCATAGTCAGACCAACATTGCTACGACCCGTATTCGCACCGACAC	0.788 ± 0.1
ACATTTGTTGATACAACCATAAAATGATAATTAGTCCCATAAATTGATAATTATCACACCCATAAATTGATATTGCCTCTGATCATAGTCAGACCAACATTGCTACGACCCGTATTCGCACCGACAC	-0.924 ± 0.37
ACATTTGTTGATACAACCATAAAATGATAATTACACCCATAAATTGATAATTATCACACCCATAAATTGATATTGCCTCTGGCTAGCATTATACCTAGGACTGAGCTAGCTGTCAACGCACCGACAC	1.91 ± 0.064
ACATTTGTTGATAGTTGCATAAAATGATAATTACACCCATAAATTGATAATTATCACACCCATAAATTGATATTGCCTCTGATCATAGTCAGACCAACATTGCTACGACCCGTATTCGCACCGACAC	-1.37 ± 0.15

Sequence	relative integration efficiency (log2)
ACATTTGTTGATACAACCATAAAATGATACACCCATAAATTGATAATTATCACACCCATAAATTGATATTGCCTCTGATCATAGTCAGACCAACATTGCTACGACCCGTATTCGCACCGACACTGAC	-2.04 ± 0.42
ACATTTGTTGATACAACCATAAAATGATAATTACACCCATAAATGGATAATTATCACCCCCAATTTAACTATAACGCTCTGATCATAGTCAGACCAACATTGCTACGACCCGTATTCGCACCGACAC	1.64 ± 0.048
ACATTTGTTCATACAACCCTAAAATGATAATTACACCCATAAATTCATCATTATCACACCCAATTTAACTATAACGCTCTGATCATAGTCAGACCAACATTGCTACGACCCGTATTCGCACCGACAC	-3.3 ± 0.36
ACATTTGTTGATACAACCATAAGTTGATATTTTCAACCATATATTGATATCTCTCACACCCATAAATTGATATTGCCTCTGATCATAGTCAGACCAACATTGCTACGACCCGTATTCGCACCGACAC	-0.117 ± 0.12
ACATTTGTTGATACAACCATAAAATGATAATTACACCCATAAATTGATAATTATCACACCCATAAATTGATATTGCCTCTCAACCATAAAATGATAATTAGATCATAGTCAGACCAAGCACCGACAC	0.308 ± 0.018
ACATTTGTTGATACAACCATAAAGTGATATTTACAACCATAAGTTGATATTTTTCACAACCATAAAATGATAATTACTCTGATCATAGTCAGACCAACATTGCTACGACCCGTATTCGCACCGACAC	0.217 ± 0.045
ACATTTGTTGATACAACCATAAAATGATACGTACACCCATAAATTGATAATTATCACACCCATAAATTGATATTGCCTCTGATCATAGTCAGACCAACATTGCTACGACCCGTATTCGCACCGACAC	-0.504 ± 0.23
ACATTTGTTGATACACCCATAAATTGATATTGCCAACCATAAGTTGATATTTTTCACAACCATATATTGATATCTCCTCTGATCATAGTCAGACCAACATTGCTACGACCCGTATTCGCACCGACAC	0.0942 ± 0.34
ACATTTGTCGATACAACCATAAAATGATAATTACCACCCCTACATTGATAATTATCACACCCATTTAACTATAACGCTCTGATCATAGTCAGACCAACATTGCTACGACCCGTATTCGCACCGACAC	-0.393 ± 0.058
ACATTTGTTGATACAACCATAAAATGATCATTACCCCCATCAATTGATAATTATCACACCCCATTTAACTATAACGCTCTGATCATAGTCAGACCAACATTGCTACGACCCGTATTCGCACCGACAC	-0.533 ± 0.18
ACATTTGTTGATACAACCATAAAATGATAATTACACCCATAAATTGATAATTATCACACCCATAAATTGATATTGCCTCTGATCACAACCATAAAATGATAATTATAGTCAGACCAAGCACCGACAC	-0.402 ± 0.11
ACATTTGTTGATAGTTGGTATTTTACTATTAATGTGGGTATTTAACTATTAATTCACACCCATAAATTGATATTGCCTCTGATCATAGTCAGACCAACATTGCTACGACCCGTATTCGCACCGACAC	-3.485 ± 0.034
ACATTTGTTGATACAACCATAAAATGATAATTACACCCATAAATTGATAAGGCGACACAAACGCCCGGTCGCGGTAAGAGGATCATAGTCAGACCAACATTGCTACGACCCGTATTCGCACCGACAC	2.27 ± 0.23
ACATTTGTTGATACAACCATAAAATGATAATTACTCTGATCATAGTCAGACCAACATTCACCCATAAATTGATAATTATCACACCCATAAATTGATATTGCGCTACGACCCGTATTCGCACCGACAC	-2.04 ± 0.32
ACATTTGTGGATACAACCATAAAATGATAATTACACCCATAAATTGATAATTATCACCCCCAATTTAACTATAACGCTCTGATCATAGTCAGACCAACATTGCTACGACCCGTATTCGCACCGACAC	2.44 ± 0.065
ACATTTGTTGATACAACCATAAAAGGATCATTCACCCCTAAATTGATAATTATCACACCCACATTTAACTATAACGCTCTGATCATAGTCAGACCAACATTGCTACGACCCGTATTCGCACCGACAC	-1.36 ± 0.36
